These results are taken from patent WO2020003077A1 (dated 2020).

Residue numbers refer to the chain shown, from its start. Numbers in names are those of the source.

The target of experiment [1] is T1, human thrombin (human, UniProt P00734 314-363; P00734 364-622). As to the kind of experiment: cell-based or functional assay.
Another experiment addresses prothrombin (UniProt P00734 44-622). Nature of the experiment: ForteBio Octet, immobilized IgG. Background: In BLI a coated tip is dipped into the sample, and binding shifts an interference pattern.
For experiment [2], the target named is T1, human thrombin. As to the kind of experiment: standard ELISA binding assay. (In general: ELISA stands for enzyme-linked immunosorbent assay.)

B1: wild-type anti-exosite 1 IgA antibody (antibody, V domains shown)
VH: QVQLIQSGSAVKKPGASVRVSCKVSGYTLTEAAIHWVRQAPGKGLEWMGGLDPQDGETVYAQQFKGRVTMTEDRSTDTAYMEVNNLRSEDTATYYCTTGDFSEFEPFSMDYFHFWGQGTVVTVAS
VL: EIVLTQSPATLSLSPGERATLSCRASQNVSSFLAWYQHKPGQAPRLLIYDASSRATDIPIRFSGSGSGTDFTLTISGLEPEDFAVYYCQQRRSWPPLTFGGGTKVEIKR
Consider B1, for which, in the experiment with human thrombin [1], the “thrombin hydrolysis of FVIII (feedback activation of thrombin via Xase complex), antibody effect” value was 7 fold decrease and the “thrombin hydrolysis of platelet receptor PAR-1 peptide (activation of platelets), antibody effect” value was 15 fold decrease.

B2: synthetic anti-exosite 1 IgG antibody (antibody, V domains shown)
VH: B1 VH
VL: B1 VL
notes: also called synthetic IgG; anti-exosite IgG antibody
Regarding B2, the binding result with prothrombin is “no binding (tested: 500nM)”.

B3: synthetic anti-exosite 1 IgG S30A variant antibody (antibody, name in Kabat numbering, V domains shown)
VH: B1 VH
VL: B1 VL with S30A
notes: also called ichorcumab S30A; ichorcumab
Consider B3, for which, in the experiment with human thrombin [2], the binding result is reported as “binds”.
